Test results taken from US20250270332A1.

Target: FZD1/2/4/5/7/8
Assay: cell-based or functional assay

B1: CM0126 (Dia-Fc-Dia) (bispecific antibody)
chain 1: MNLLLILTFVAAAVAEFEVQLVESGGGLVQPGGSLRLSCAASGFNIHSSSIHWVRQAPGKGLEWVAATYSSFGSITYADSVKGRFTISADTSKNTAYLQMNSLRAEDTAVYYCARYHHPFGYALDYWGQGTLVTVSSGGGGSDIQMTQSPSSLSASVGDRVTITCRASQSVSSAVAWYQQKPGKAPKLLIYSASSLYSGVPSRFSGSRSGTDFTLTISSLQPEDFATYYCQQGVYLFTFGQGTKVEIKLEDKTHTKVEPKSSDKTHNCPPCPAPELLGGPSVFLFPPKPKDTLMISRTPEVTCVVVDVSHEDPEVKFNWYVDGVEVHNAKTKPREEQYNSTYRVVSVLTVLHQDWLNGKEYKCKVSNKALPAPIEKTISKAKGQPREPQVYTLPPIRELMTSNQVSLSCAVKGFYPSDIAVEWESNGQPENNYKTTPPVLDSDGSFFLVSKLTVDKSRWQQGNVFSCSVMHEALHNHYTQKSLSLSPGKSGSETPGTSESATPESGGGEVQLVESGGGLVQPGGSLRLSCAASGFNISSYYIHWVRQAPGKGLEWVASIYSSYGYTSYADSVKGRFTISADTSKNTAYLQMNSLRAEDTAVYYCARTVRGSKKPYFSGWAMDYWGQGTLVTVSSGGGGSDIQMTQSPSSLSASVGDRVTITCRASQSVSSAVAWYQQKPGKAPKLLIYSASSLYSGVPSRFSGSRSGTDFTLTISSLQPEDFATYYCQQYSWGPFTFGQGTKVEIK
chain 2: MNLLLILTFVAAAVAEFEVQLVESGGGLVQPGGSLRLSCAASGFNIHSSSIHWVRQAPGKGLEWVAATYSSFGSITYADSVKGRFTISADTSKNTAYLQMNSLRAEDTAVYYCARYHHPFGYALDYWGQGTLVTVSSGGGGSDIQMTQSPSSLSASVGDRVTITCRASQSVSSAVAWYQQKPGKAPKLLIYSASSLYSGVPSRFSGSRSGTDFTLTISSLQPEDFATYYCQQGVYLFTFGQGTKVEIKLEDKTHTKVEPKTSDKTHTCPPCPAPELLGGPSVFLFPPKPKDTLMISRTPEVTCVVVDVSHEDPEVKFNWYVDGVEVHNAKTKPREEQYNSTYRVVSVLTVLHQDWLNGKEYKCKVSNKALPAPIEKTISKAKGQPREPMVFDLPPSREEMTKNQVSLWCMVKGFYPSDIAVEWESNGQPENNYKTTPPVLDSDGSFFLYSKLTVDKSRWQQGNVFSCSVMHEALHNHYTQKSLSLSPGKSGSETPGTSESATPESGGGEVQLVESGGGLVQPGGSLRLSCAASGFNISYSSIHWVRQAPGKGLEWVAYISSYYGYTYYADSVKGRFTISADTSKNTAYLQMNSLRAEDTAVYYCARAHYFPWAGAMDYWGQGTLVTVSSGGGGSDIQMTQSPSSLSASVGDRVTITCRASQSVSSAVAWYQQKPGKAPKLLIYSASSLYSGVPSRFSGSRSGTDFTLTISSLQPEDFATYYCQQYYWPITFGQGTKVEIK
  % Wnt Maxima Avg: 52%
  EC50 (nM), TOPFLASH assay: 0.3 nM
  Maximal Signal (% Wnt3a maxima) (% Wnt3a maxima): 52
  Topflash EC50 (nM) Avg: 0.3 nM
